Literature values, collected in US20220023273A1, “METHODS FOR TREATING SYMPTOMS AND DISORDERS ASSOCIATED WITH LYSOSOMAL STORAGE DISEASES” (GENZYME CORPORATION, priority 2019, published 2022).

System: plasma GL-3
Conditions: after 156 weeks; matched historical phase 3 trial patients treated with agalsidase beta; cited from earlier work

B1: agalsidase beta: semisynthetic enzyme agalsidase beta (alpha-galactosidase), enzyme replacement therapy for Fabry disease (protein, UniProt P06280 32-429, looked up)
Alpha-galactosidase A: LDNGLARTPTMGWLHWERFMCNLDCQEEPDSCISEKLFMEMAELMVSEGWKDAGYEYLCIDDCWMAPQRDSEGRLQADPQRFPHGIRQLANYVHSKGLKLGIYADVGNKTCAGFPGSFGYYDIDAQTFADWGVDLLKFDGCYCDSLENLADGYKHMSLALNRTGRSIVYSCEWPLYMWPFQKPNYTEIRQYCNHWRNFADIDDSWKSIKSILDWTSFNQERIVDVAGPGGWNDPDMLVIGNFGLSWNQQVTQMALWAIMAAPLFMSNDLRHISPQAKALLQDKDVIAINQDPLGKQGYQLRQGDNFEVWERPLSGLAWAVAMINRQEIGGPRSYTIAVASLGKGVACNPACFITQLLPVKRKLGFYEWTSRLRSHINPTGTVLLQLENTMQMSLKDLL
For B1, the “Plasma GL-3 levels” value is given as 4.44 µg/mL.
